Test results from US20230035859A1, “COMPOSITIONS AND METHODS FOR EPITOPE SCANNING” (priority 2019, published 2023).

Assays:
[1] = target: QuickSwitch Quant HLA-A*02:01 Tetramers (PE or APC labeled) (MBL International), A*02:0; assay: QuickSwitch Quant tetramer control peptide exchange

Binder	% Peptide Exchange [1] [%]	EpiScan MFI (HLA-A*02:01 (human))
AMDEFIERYKL (modifications not checked)	96.9	2.35
TLATHGLAAV (modifications not checked)	98	4.04
SLPGVFCGV (modifications not checked)	98	6.42
VMAYITGGVV (modifications not checked)	99.1	4.64
VMAYITGGV (modifications not checked)	99.1	4.53
VMVELVAEL (modifications not checked)	98.6	5.34
YIDIGNYTV (modifications not checked)	97.9	4.42
VLYQDVNCTEV (modifications not checked)	97.9	5.6
